{"source": "paper PMC3756998", "about": "“Use of a Small Peptide Fragment as an Inhibitor of Insulin Fibrillation Process: A Study by High and Low Resolution Spectroscopy” (PLoS ONE, 2013)", "key": {"insulin [1]": {"biological_target": "T1, insulin (Bos taurus, UniProt P01317)", "T1 construct": "Insulin consists of two polypeptide chains (Chain A –21 residues; Chain B –30 residues) held together by two disulphide bonds; purchased Sigma (St. Louis, MO)", "T1 sequence (P01317 25-54 limits assumed)": "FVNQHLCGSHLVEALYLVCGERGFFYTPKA", "T1 sequence (P01317 85-105 limits assumed)": "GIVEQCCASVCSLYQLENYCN", "test": "biochemical", "assay_type": "binding, bovine", "conditions": "apparent Kd"}, "human red blood cells": {"test_system": "human red blood cells", "conditions": "red cells of human, 1 h, 250 µM"}, "insulin [2]": {"test_system": "insulin", "conditions": "literature, cited from earlier work", "excerpt": "These agents routed via natural source or synthetic pathways are generally termed as amyloid inhibitors. The idea behind such anti-amyloid agent is to inhibit the creation of amyloidogenic aggregate and/to arrest the amyloid construction."}, "insulin fibrils": {"test_system": "insulin fibrils", "assay_type": "biochemical, bovine", "conditions": "pH 2.6"}, "insulin [3]": {"biological_target": "T1, insulin", "assay_type": "biochemical, bovine", "conditions": "pH 2.6"}, "insulin [4]": {"biological_target": "T1, insulin", "assay_type": "biochemical, bovine", "conditions": "pH 2.6", "remark": "listed apart in the source"}, "insulin [5]": {"biological_target": "T1, insulin", "assay_type": "biochemical, bovine"}, "insulin [6]": {"biological_target": "T1, insulin", "assay_type": "biochemical, bovine", "conditions": "pH 2.6", "remark": "listed apart in the source"}}, "note": "Where “and” joins values, the source holds several entries; their conditions need not be identical. Equal entries are not always repeated. Entries after “also recorded” stand apart in the source; their conditions may differ. Where two headings read alike, the source gives them in different places. Ends that are not written are not given here.", "data": [{"compound": "NIVNVSLVK [NK9, NIVNVSLVK]", "values": [{"measurement": "Kd", "setting": "insulin [1]", "value": "2.2 µM and 1.2 µM"}, {"measurement": "hemolysis", "setting": "human red blood cells", "value": "less than 0.5%"}, {"measurement": "cytotoxicity", "setting": "HT1080 cells", "value": "less than 5%"}]}, {"compound": "Triton X 100 [reference compound]", "values": [{"measurement": "viability", "setting": "HT1080 cells", "value": 20, "unit": "%"}]}, {"compound": "O=c1c(O)c(-c2ccc(O)c(O)c2)oc2cc(O)cc(O)c12", "note": "[quercetin]", "values": [{"measurement": "effect on insulin fibrillation (in words)", "setting": "insulin [2]; ref [45]–[46]", "value": "interfered with the dissociation of the oligomeric insulin to monomer and also destabilized preformed insulin fibril"}]}, {"compound": "Insulin: 51-residue protein hormone; bovine insulin, two chains held together by two disulphide bonds", "values": [{"measurement": "fibril morphology by TEM", "setting": "insulin fibrils", "value": "branched insulin fibrils"}, {"measurement": "Apparent Rate Constant", "setting": "insulin [3]", "value": "2.9 ± 0.13", "unit": "h⁻¹"}, {"measurement": "Lag Time", "setting": "insulin [3]", "value": "120 min and 120 ± 5 min"}, {"measurement": "hydrodynamic radius", "setting": "insulin [4]", "value": 2.0, "unit": "nm"}, {"measurement": "size of insulin monomer formed", "setting": "insulin [4]", "value": 1.3, "unit": "nm"}, {"measurement": "size of large oligomer", "setting": "insulin [4]", "value": 24, "unit": "nm"}, {"measurement": "cross beta structure formation / helix loss of insulin (FT-IR, in words)", "setting": "insulin [5]", "value": "forms the cross beta structure indicative of fibrils beyond 2 h; also recorded: significant increases in the A1628/A1654 ratio was observed after 2 h of incubation"}, {"measurement": "β-sheet content of mature fibrils (FT-IR)", "setting": "insulin [5]", "value": "~60", "unit": "%"}, {"measurement": "helix content of insulin (CD)", "setting": "insulin [6]", "value": 39, "unit": "%"}]}, {"compound": "OCC(F)(F)F", "note": "[trifluoroethanol]", "values": [{"measurement": "effect on insulin fibrillation (in words)", "setting": "insulin [2]; ref [23]", "value": "on binding with insulin trimer prevented the appearance of soluble oligomers; also recorded: could delay the fibrillation of insulin by interfering with the oligomer to monomer dissociation step"}]}]}
